Numbered stars: 1 amine (or outer) side, 2 acyl side, 3 side chain; on linkers, the order of the positions; unused ones are H or OH. Bridge positions count the residues as written; N and C are the ends. Square brackets hold non-standard residues; d marks the D form. Primed or numbered codes have the meaning given here. Side chains are listed from the residue outwards. * marks the point of attachment. PEG24′ = polyethylene glycol unit with 24 repeats; Trp(7-aza) = N[C@@H](Cc1c[nH]c2ncccc12)C(=O)O; γGlu = O=C(O)[C@H](CCC(=O)[*:2])N[*:1]; Palmitoyl = CCCCCCCCCCCCCCCC(=O)*; NMeD = CN[C@@H](CC(=O)O)C(=O)O; Chg = N[C@H](C(=O)O)C1CCCCC1; Tle = CC(C)(C)[C@H](N)C(=O)O
Tests used:
Test in all cases: cell-based or functional assay
[1] = molecular target: cloned hERG potassium channel (human, UniProt Q12809 1-1159)
human C5 = human C5 (human, UniProt P01031 19-1676)
dog C5 = dog C5 (dog)
rabbit C5 = rabbit C5 (rabbit)
Sequence of rabbit C5 (rabbit) (P01031 whole entry): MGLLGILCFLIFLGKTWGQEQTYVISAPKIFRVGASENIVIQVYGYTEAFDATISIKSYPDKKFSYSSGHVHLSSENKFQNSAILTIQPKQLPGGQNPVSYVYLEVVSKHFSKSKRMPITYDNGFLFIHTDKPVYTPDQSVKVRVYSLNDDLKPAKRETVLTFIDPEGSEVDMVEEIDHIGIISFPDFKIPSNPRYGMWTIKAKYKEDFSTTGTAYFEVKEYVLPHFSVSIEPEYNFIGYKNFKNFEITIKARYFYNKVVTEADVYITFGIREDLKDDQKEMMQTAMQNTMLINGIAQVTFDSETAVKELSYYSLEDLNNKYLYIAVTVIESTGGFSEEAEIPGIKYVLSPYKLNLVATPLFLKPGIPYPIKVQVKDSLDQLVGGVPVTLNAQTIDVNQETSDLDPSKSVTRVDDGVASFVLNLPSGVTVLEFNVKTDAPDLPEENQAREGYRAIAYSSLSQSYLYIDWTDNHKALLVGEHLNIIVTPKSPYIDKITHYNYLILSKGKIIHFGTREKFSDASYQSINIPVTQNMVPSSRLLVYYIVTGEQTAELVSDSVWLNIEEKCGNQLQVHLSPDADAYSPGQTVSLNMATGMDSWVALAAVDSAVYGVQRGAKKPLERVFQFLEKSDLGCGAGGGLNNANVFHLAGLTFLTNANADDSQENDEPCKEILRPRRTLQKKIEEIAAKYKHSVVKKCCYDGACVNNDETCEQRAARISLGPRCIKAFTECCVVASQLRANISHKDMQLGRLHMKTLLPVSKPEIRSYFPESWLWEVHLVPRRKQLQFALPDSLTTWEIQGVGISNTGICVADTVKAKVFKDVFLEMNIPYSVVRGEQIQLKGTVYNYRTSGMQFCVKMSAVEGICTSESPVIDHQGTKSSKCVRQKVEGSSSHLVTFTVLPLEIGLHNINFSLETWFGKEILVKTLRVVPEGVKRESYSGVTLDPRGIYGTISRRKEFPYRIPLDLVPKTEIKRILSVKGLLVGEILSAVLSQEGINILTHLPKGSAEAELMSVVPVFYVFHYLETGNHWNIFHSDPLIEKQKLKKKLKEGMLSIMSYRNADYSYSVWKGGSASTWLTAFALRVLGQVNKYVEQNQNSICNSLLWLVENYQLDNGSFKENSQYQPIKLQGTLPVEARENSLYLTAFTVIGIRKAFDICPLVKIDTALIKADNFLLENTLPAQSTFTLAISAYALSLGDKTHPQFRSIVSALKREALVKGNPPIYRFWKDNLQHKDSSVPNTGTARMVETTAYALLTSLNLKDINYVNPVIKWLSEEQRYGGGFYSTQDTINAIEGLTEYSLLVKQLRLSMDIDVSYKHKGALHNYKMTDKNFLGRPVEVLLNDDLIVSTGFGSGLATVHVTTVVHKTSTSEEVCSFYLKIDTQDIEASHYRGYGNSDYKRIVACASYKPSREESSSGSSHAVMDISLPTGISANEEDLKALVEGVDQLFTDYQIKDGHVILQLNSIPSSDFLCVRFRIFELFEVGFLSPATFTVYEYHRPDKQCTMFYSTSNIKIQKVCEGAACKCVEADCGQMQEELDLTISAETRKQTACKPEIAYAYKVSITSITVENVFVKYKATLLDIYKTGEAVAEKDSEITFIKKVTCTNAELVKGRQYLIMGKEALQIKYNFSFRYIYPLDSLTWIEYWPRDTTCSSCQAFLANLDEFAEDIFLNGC

Sequence of cloned hERG potassium channel (Q12809 whole entry): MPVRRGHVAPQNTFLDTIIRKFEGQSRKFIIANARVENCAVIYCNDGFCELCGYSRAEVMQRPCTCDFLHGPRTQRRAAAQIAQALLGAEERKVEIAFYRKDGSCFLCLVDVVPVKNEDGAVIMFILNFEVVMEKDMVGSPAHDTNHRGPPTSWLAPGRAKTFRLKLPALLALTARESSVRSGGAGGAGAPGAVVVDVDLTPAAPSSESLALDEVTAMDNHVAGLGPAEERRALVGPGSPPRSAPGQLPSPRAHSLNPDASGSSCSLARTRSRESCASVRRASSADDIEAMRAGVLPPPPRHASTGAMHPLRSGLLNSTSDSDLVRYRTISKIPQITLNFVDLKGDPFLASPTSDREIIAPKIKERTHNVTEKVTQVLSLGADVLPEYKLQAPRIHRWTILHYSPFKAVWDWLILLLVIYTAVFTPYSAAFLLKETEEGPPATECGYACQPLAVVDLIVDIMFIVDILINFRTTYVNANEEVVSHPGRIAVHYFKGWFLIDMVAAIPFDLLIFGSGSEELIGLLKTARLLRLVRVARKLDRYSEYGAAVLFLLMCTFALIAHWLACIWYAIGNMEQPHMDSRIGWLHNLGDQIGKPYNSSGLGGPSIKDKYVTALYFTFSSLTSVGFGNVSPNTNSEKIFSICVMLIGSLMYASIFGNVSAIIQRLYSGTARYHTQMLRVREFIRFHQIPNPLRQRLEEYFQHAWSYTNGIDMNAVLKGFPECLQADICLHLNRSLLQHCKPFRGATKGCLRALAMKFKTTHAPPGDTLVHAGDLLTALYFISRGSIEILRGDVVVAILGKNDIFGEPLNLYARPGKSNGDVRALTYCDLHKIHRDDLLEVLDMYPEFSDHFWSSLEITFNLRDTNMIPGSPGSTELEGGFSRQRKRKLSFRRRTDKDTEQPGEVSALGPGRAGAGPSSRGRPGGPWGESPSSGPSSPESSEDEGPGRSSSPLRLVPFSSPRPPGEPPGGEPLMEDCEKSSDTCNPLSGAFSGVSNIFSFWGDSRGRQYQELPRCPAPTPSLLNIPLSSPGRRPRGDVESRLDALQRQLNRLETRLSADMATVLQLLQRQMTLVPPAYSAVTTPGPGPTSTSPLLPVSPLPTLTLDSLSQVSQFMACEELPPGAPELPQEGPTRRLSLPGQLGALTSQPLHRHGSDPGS
Sequence of dog C5 (dog) (P01031 whole entry): as the sequence (P01031 whole entry) above
Sequence of human C5 (P01031 19-1676 limits assumed): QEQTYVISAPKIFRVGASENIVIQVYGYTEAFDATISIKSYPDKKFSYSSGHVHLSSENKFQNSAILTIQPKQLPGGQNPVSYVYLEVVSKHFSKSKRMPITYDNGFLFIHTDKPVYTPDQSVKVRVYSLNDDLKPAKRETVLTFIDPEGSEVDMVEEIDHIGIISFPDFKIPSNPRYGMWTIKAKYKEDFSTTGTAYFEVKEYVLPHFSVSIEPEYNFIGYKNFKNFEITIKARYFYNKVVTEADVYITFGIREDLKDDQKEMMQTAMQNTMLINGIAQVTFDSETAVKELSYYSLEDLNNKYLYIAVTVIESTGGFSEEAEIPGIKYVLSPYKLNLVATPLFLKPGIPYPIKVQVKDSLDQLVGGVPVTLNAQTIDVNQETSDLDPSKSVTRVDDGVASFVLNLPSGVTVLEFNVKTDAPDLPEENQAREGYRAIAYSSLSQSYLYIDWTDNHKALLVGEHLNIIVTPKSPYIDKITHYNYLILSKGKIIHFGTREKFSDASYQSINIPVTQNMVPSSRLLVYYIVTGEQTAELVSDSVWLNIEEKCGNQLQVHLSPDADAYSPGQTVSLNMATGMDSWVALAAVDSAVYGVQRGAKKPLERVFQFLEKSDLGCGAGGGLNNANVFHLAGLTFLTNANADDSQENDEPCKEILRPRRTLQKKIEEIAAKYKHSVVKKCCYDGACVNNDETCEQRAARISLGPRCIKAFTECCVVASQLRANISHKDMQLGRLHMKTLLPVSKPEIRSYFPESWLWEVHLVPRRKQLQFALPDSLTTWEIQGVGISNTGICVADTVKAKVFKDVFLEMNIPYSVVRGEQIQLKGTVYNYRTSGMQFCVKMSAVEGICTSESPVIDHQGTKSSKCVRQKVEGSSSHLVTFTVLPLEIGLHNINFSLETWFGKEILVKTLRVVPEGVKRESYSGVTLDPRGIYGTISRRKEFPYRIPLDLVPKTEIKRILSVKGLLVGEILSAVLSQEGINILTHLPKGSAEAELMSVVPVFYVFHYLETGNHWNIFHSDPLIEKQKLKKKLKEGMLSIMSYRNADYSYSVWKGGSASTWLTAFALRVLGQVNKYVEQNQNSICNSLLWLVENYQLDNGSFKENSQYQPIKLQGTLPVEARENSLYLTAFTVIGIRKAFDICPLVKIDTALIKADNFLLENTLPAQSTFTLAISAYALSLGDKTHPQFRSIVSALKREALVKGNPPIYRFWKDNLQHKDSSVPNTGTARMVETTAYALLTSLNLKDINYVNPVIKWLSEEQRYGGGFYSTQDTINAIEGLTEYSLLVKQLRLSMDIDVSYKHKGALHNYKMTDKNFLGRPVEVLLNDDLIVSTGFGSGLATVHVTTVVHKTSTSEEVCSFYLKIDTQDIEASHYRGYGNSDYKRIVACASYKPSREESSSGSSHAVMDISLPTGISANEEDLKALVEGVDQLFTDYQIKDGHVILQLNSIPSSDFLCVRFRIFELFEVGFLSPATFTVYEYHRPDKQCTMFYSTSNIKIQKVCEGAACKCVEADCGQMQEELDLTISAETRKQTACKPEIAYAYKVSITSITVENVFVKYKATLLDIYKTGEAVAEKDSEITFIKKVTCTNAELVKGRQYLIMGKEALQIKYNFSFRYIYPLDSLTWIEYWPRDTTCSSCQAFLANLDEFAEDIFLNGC

Ac-KVERFD[NMeD][Tle]Y[Trp(7-aza)]EYP[Chg]K([PEG24′-γGlu-Palmitoyl])-OH (lactam 1-6) [R5000]
IC50 of inhibition of hERG potassium channel current (parallel patch-clamp, HEK293 cells) [1]: > 300 µM
IC50 of inhibition of red blood cell hemolysis, human serum/plasma (human C5): 0.0066 µM
IC50 of inhibition of red blood cell hemolysis, dog serum/plasma (dog C5): > 4.7 µM
IC50 of inhibition of red blood cell hemolysis, rabbit serum/plasma (rabbit C5): > 67 µM
